The target of one data set is T1, SRCRP2-11-R (Homo sapiens, UniProt Q9UGM3, E4R).
T1 chain: GRVRVLYRGSW
The data set can be described thus: EMSA. Background: A gel shift assay detects complexes by their altered migration in electrophoresis.

In a further data set the target is T2, SRCRP2-11 (Homo sapiens, UniProt Q9UGM3).
T2 chain: GRVEVLYRGSW
The data set can be described thus: EMSA.

B1: tdTomato1 siRNA (dsRNA)
RNA 1: UUGGUGUCCACGUAGUAGUAG
RNA 2: CUACUACUACGUGGACACCAA
In the case of B1, the binding result with SRCRP2-11-R and in the data set with SRCRP2-11 was “binds” in each case.

Values taken from PMC5514624.
